Experiment [1] addresses T1, SARS-CoV-2 receptor binding domain (RBD), native (SARS-CoV-2, UniProt P0DTC2 330-532).
T1 construct: range 330-532
Description: method and antigen not stated there.

Experiment [2] concerns the target T2, SARS-CoV-2 spike receptor binding domain (RBD), His-tagged (SARS-CoV-2 (Wuhan-Hu-1 strain), UniProt P0DTC2 330-532).
T2 construct: range 330-532
The experiment can be described thus: X-ray crystal structure of the ternary complex RBD/Fab 253/Fab 75.

For experiment [3], the target named is T1, SARS-CoV-2 receptor binding domain …. The experiment can be described thus: BLI, RBD/Fab; de-glycosylated Fab 316.
The target is the same in experiment [4]. The experiment can be described thus: BLI, RBD/Fab; de-glycosylated Fab 88.
Experiment [5] shares this target. The experiment can be described thus: BLI, RBD/Fab; glycosylated Fab 88.

Data on five molecules can be found in patent US20240043507A1 (RQ BIOTECHNOLOGY, published 2024).

B1: mAb 45 (antibody, V domains shown)
VH: QVQLVESGGGVVQPGRSLRLSCAASGFTFSTYAMHWVRQAPGKGLEWVAVLSYDGSNKYYADSVKGRFTISRDNSKNTLYLQMNSLRAEDTAVYYCAKGGSYAYYYYMDVWGKGTTVTVSS
VL: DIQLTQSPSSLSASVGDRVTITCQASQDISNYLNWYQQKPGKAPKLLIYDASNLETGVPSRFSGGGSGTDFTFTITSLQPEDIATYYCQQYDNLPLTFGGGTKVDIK
notes: also called antibody 45
B1 had a Kd in experiment [1] of 0.018 µg/mL.

B2: Fab 75 (Fab, V domains shown)
VH: QVQLVESGGGVVQPGRSLRLSCAASGFTFNNYPLHWVRQAPGKGPEWVAVISQDGGNKYYVDSVKGRFTISRDNSKNTLYLQMNNLRAEDTALYYCARDVVVVVAARNHYYNGMDVWGQGTTVTVSS
VL: DIQLTQSPSSVSASVGDRVTITCRASQGISSWLAWYQQKPGKAPKLLIYAVSSLQSGVPSRFSGSGSGTDFTLTISSLQPEDFATYYCQQAKSFPFTFGPGTKVEIK
In the case of B2, the binding result in experiment [2] is “binds”.

B3: Fab 316, de-glycosylated (Fab, V domains shown)
VH: not shown
VL: QAVLTQPPSASGSPGQSVTISCTGTSSDVGGYNYVSWYQQHPGKAPKLMIYEVSKRPSGVPDRFSGSKSGNTASLTVSGLQAEDEADYYCSSYAGSNHWVFGGGTKLTVL
In turn, B3 registered a Kd in experiment [3] of 1 nM.

B4: Fab 88, de-glycosylated (Fab, V domains shown)
VH: QLQLQESGPGLVKPSQTLSLTCTVSGGSISSGSYNWTWIRQPAGKGLEWIGRIYNSGSTNYNPSLKSRVTISVDTSKNQLSLKVRSVTAADTAVYYCARHCSGGTCYPKYYYGMDVWGQGTTVTVSS
VL: QSALTQPPSVSEAPRQRVTISCSGSSSNIGNNAVNWYQQFPGKAPKLLIYYDDLLPSGVSDRFSGSKSGTSASLAISGVQSEDEADYYCAAWDDSLNVVVFGGGTKLTVL
In turn, B4 showed a Kd in experiment [4] of 0.8 nM.

B5: Fab 88 (Fab, V domains shown)
VH: B4 VH
VL: B4 VL
notes: also called 88 Fab (glycosylated)
B5 yielded a dissociation constant (Kd) in experiment [5] of 1.2 nM.
